# Experiment: soluble on expression in E. coli; label from the status in PepcDB or PDB records
row,Sequence,soluble on expression in E. coli
1,MSLRTLVAGVDTSTQSCKVRVTDAETGELVRFGQAKHPNGTSVDPSYWWSAFQEAAEQAGGLDDVSALAVGGQQHGMVILDNQGNVIRDAMLWNDTSSAPQAAALIEKLGAAPAQDGEPEDPIARGKQRWVKAVGSSPVASYTLTKVAWVAENEPENVKKIAAICLPHDWLSWRIAGYGPVAEGEDAHLEALFTDRSDASGTIYYDAASNEYRRDLIAMVLEAAEGAKAAQSHAEAIVLPTVLGPRDAAPVKADPAIAGKNVEGGCLLAPGGGDNAMASLGLGMAVGDVSISLGTSGVAAAISENPTYDLTGAVSGFADCTGHYLPLACTINGSRILDAGRAALGVDYDELAKLAFASKPGANGITLVPYFDGERTPNRPNATATFSGMTLANTTRENLARAFVEGLLCSQRDCLELIRSLGASITRILLIGGGAKSEAIRTLAPSILGMDVTRPATDEYVAIGAARQAAWVLSGETEPPAWQLTIDGVETGEPTEAVYEAYAKARGEGHHHHHH,soluble
2,MHHFSTGSSSAIIASSSSSSSSSNGYGHSPRDLLTGAAVANGGGGGFGGVAGVAFATTSPPTPVNLDVQRIDCTDETTVVMVKLTDEMFAALQESQRSGKPLRINVNDKEGRVEIGDGTASSKTNNTFYFQKQTVPEQTDTLVHSGGGVRNVGTYKTKYQIQATDRSFQETKKRAELRAEVEKSRGTKQMKKSGVTSSSSRYHNSSNSTPRSMNSAPNSSRVSPSFMSSSSSKASTSHVTTNNSKGTPNNGSESKKIDMTPQLMKHSIKKRIIHLIVTQKYSNWEEVYKKLKSDGLPEEKDEIEKIRSCVEEVSETRPEMSVMSLRTSFLSEVDQRWMFFNQEEKSHVRRLCNSGSRVGPTDNNFAPLRKKGMERITASSKTEKDKVKEKLEEAAKIPSPPKDQKSLPSIVEEDDYYTAPPEPANKRRAHNLAPPPPPPVQVVTPQTTSSQTETGPLPPKRTKRPESSSPQLERSSQPASKLNPIKLAATIAMQPIPKCDPPPPPPSRDTYHHNVASVAVNGGGSTASSRVSSPASSLSSPSQPSCNWEKQFGDIKTLSEAEAYFKQFHKEYPLYMECHEMLTKVSSEFRGLEVKLLTAVALSKTSPSPQNMQNVKQIEKNIQNRYAHFEKDPEFMKARQRHTDLRSKLNVLKTRIGSWEKMRRQSSTNV,soluble
3,MAQSVPPGDIQTQPGTKIVFNAPYDDKHTYHIKVINSSARRIGYGIKTTNMKRLGVDPPCGVLDPKEAVLLAVSCDAFAFGQEDTNNDRITVEWTNTPDGAAKQFRREWFQGDGMARRKNLPIEYNP,not soluble
4,MGSDKIHHHHHHMVATPNSSYISPEDYLKGEETSPIKHEYRQGQVYAMAGASNAHVIISLNIASMLRNHLRGSGCQAYISDTKVHIESINVYYYPDVTVSCDQRDRAFNNFLRYPCLIVEVLSPTTEAFDRGDKFADYRQMESLQEYVLISQTRLNVECFRRNPESQWVLYPYGKEDIIHLASVDFRCAVADFYEDVTFESL,not soluble
5,MSLIEIPGFIDLHTHTRYPDNDKFPFIDIDDSAINGGFSTILAMPNSEIPIDSIKNLRIAQEIDKKLKTKVHRVGSLTKNLEGKELVNYKEFVENGITIFSDDGKSLINDHLADEAFKQISKLGGAVFQHCEKSCHSKPGDIAPPNSNSDLILINNDEELEVLERDLSLSEKYGTRYHAQHLSTFESVELIKKAKQEGLPVTAEVTPHHILLNNENLDTNNGLFKMYPPLRTEKDREGLVEGLQSEIIDVIATDHAPHKAETKNVPFKDANRGVVGLNEGHHHHHH,soluble
6,VTDDLEPTAPAAAAPEPEVKGIDLARRALEEARAAAKASGKSVGQGRRSGTGVRALRARRRRGWSGPGPDDRDPQPFGALTNAIAKQRGWSPKVSEGTVLGRWVQVVGEDIAAHAEPTGLRDGILSVSAESTAWATQLRMMQSQILAKIAAAVGDGVVKSLRITGPTAPSWRKGERHIRGRGPRDTYG,not soluble
